Laboratory results from PMC10710061.

B1: ZnF domain of Arabidopsis thaliana SPL5, residues 60 to 127 (domain or fragment)
chain: SRLCQVDRCTVNLTEAKQYYRRHRVCEVHAKASAATVAGVRQRFCQQCSRFHELPEFDEAKRSCRRRL

Tests used:
[1] = target: ZnF domain of Arabidopsis thaliana SPL5, residues 60 to 127 (Arabidopsis thaliana) (UniProt Q9S758); test: ITC; 200 μM SAP05 from the syringe into 20 μM SPL5^ZnF in the cell; 25 °C, 20 mM HEPES pH 7.5, 150 mM NaCl; one-site binding model
[2] = target: SAP05 of Aster Yellows phytoplasma strain Witches Broom (AYWB), residues 33 to 135 (Aster Yellows phytoplasma strain Witches Broom (AYWB)); test: ITC; SPL5^ZnF from the syringe (250 μM for wild-type SAP05, 200 μM for the SAP05–Rpn10^vWA complex or SAP05 mutants) into 20 μM partner in the cell; 25 °C, 20 mM HEPES pH 7.5, 150 mM NaCl; one-site binding model
[3] = target: SAP05 D66E (purified, for ITC) (Aster Yellows phytoplasma strain Witches Broom (AYWB)); test: as above
[4] = target: SAP05–Rpn10^vWA complex (Aster Yellows phytoplasma strain Witches Broom (AYWB) | Arabidopsis thaliana) (UniProt P55034); test: as above
[5] = target: SAP05 H58A T60W (purified, for ITC) (Aster Yellows phytoplasma strain Witches Broom (AYWB)); test: as above

Row | Molecule | Kd [1] | stoichiometry N [1] | Kd [2] | Kd [3] | Kd [4] | stoichiometry N [4] | Kd [5]
1 | SAP05 of Aster Yellows phytoplasma strain Witches Broom (AYWB), residues 33 to 135 (natural protein) | 450 nM | 1 | – | – | – | – | –
2 | B1 | – | – | 520 nM | 17700 nM | 650 nM | 1 | 3600 nM
